Results reported in EP3758732B1 (Leidos, Inc., dated 2024).

Assays:
[1] = target: T1, soluble recombinant human PD-1 receptor (human, UniProt Q15116 25-167, limits assumed); assay: clonal phage ELISA, peptide on phage, wells coated with PD-1
T1 construct: also called human PD-1 receptors

[2] = target: human PD-1 on Jurkat cells (human, UniProt Q15116 25-288); assay: cell-based or functional assay
human PD-1 on Jurkat cells, sequence (Q15116 25-288): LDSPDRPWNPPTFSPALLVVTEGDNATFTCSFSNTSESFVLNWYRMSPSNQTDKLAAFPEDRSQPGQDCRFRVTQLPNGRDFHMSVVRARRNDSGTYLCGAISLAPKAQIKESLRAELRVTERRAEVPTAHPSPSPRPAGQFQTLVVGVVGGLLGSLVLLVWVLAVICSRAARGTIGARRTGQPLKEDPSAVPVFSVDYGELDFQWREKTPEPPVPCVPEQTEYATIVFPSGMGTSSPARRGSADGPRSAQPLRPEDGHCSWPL

T1 sequence (Q15116 25-167 limits assumed): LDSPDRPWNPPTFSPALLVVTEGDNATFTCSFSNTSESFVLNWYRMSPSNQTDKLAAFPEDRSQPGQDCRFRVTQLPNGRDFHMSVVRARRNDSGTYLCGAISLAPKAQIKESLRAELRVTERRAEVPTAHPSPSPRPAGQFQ

For WNLPASFHNHHIRPHEHEWIQ (also called WQ-21; peptide WQ20) [WQ20], the coated signal [1] was 0.275 and the “peak-fold inhibition (luciferase reporter)” value (“peak-fold inhibition” below) [2] was roughly 1.5 fold.

B1: QP20 (peptide)
peptide: QTRTVPMPKIHHPPWQNVVP
notes: Found by phage display; also called peptide QP20
For B1, the coated signal [1] was 0.851 and the “peak-fold inhibition” value [2] was roughly 1.5 fold.

B2: HD20 (peptide)
peptide: HHHQVYQVRSHWTGMHSGHD
notes: Found by phage display; also called peptide HD20
B2 was tested, and the coated signal [1] was 0.281 and the “peak-fold inhibition” value [2] was roughly 1.5 fold.

B3: SQ20 (peptide)
peptide: SSYHHFKMPELHFGKNTFHQ
notes: Found by phage display; also called peptide SQ20
With B3 the coated signal [1] was 0.284 and the “peak-fold inhibition” value [2] was roughly 1.5 fold.
